Test results: patent US20070292409A1 (University of California, published 2007)

What was measured:
[1] = biological target: G protein-q/11 α-subunit (Gαq/11), endogenous protein of 3T3-L1 adipocytes (UniProt P21279)
[2] = biological target: T1, insulin receptor, endogenous protein of 3T3-L1 adipocytes (UniProt P15208 28-1372, limits assumed); assay: co-immunoprecipitation with anti-GRK2 antibody from 3T3-L1 adipocyte lysates
T1 construct: The mature receptor is made of alpha and beta chains; also called IR
T1 sequence (P15208 28-1372 limits assumed): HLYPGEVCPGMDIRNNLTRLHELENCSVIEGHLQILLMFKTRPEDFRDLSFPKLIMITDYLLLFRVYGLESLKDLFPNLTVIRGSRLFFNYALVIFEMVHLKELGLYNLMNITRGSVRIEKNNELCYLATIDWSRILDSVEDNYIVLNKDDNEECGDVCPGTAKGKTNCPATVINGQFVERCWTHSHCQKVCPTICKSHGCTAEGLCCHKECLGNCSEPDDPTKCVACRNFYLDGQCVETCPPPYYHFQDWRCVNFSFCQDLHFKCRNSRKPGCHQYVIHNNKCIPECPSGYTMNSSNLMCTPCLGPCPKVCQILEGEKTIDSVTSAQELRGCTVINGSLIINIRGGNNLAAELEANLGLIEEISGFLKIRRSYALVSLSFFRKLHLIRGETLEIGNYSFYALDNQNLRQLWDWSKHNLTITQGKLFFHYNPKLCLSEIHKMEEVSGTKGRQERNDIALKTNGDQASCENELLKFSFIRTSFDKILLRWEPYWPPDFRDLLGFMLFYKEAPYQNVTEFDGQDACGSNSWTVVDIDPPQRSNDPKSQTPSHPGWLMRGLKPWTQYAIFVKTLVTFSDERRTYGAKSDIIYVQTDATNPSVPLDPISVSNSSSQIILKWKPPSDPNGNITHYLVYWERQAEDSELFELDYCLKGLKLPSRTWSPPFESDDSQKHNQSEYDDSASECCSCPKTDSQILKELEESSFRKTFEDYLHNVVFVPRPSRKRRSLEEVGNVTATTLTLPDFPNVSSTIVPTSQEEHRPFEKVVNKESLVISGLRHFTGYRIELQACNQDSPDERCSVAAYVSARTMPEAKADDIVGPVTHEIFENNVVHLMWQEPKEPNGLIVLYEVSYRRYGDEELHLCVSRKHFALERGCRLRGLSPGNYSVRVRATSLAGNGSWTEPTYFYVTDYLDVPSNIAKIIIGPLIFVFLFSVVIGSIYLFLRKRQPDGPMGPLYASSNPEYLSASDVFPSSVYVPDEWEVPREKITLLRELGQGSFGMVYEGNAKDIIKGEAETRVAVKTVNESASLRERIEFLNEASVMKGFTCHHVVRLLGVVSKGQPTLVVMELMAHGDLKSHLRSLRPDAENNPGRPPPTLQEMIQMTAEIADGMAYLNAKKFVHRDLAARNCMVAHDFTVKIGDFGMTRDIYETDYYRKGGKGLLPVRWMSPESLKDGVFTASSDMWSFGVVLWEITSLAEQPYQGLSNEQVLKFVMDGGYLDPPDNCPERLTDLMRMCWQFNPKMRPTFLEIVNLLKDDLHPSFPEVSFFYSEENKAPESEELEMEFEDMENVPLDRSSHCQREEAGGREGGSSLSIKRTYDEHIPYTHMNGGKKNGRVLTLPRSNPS

G protein-q/11 α-subunit (Gαq/11), endogenous protein of 3T3-L1 adipocytes, sequence (P21279 whole entry): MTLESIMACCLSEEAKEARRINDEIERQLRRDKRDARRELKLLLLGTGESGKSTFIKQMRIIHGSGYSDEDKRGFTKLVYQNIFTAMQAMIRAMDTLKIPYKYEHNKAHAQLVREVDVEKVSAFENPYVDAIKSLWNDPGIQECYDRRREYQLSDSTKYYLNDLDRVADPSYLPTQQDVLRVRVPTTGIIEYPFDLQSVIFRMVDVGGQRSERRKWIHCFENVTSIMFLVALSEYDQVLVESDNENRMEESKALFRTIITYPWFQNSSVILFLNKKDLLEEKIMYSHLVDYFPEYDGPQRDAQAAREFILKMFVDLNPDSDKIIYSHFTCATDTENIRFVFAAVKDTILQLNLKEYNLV

deletion mutant of GRK2 lacking the RGS domain
insulin-induced GLUT4 translocation after nuclear microinjection of the expression vector [1]: overexpression of delta-GRK2 had no effect

kinase deficient (K220R) GRK2, overexpressed (adenovirus or plasmid vector)
Gαq/11 tyrosine phosphorylation stimulated by ET-1 or insulin (PY20 immunoprecipitation, anti-Gαq/11 blot) [1]: both WT- and KD-GRK2 overexpression inhibited Gαq/11 tyrosine phosphorylation stimulated by ET-1 or insulin | insulin-induced GLUT4 translocation after nuclear microinjection of the expression vector [1]: overexpression of either WT- or KD-GRK2 by nuclear microinjection inhibited insulin-induced GLUT4 translocation | insulin-induced Gαq/11 tyrosine phosphorylation (PY20 immunoprecipitation, anti-Gαq/11 blot) [1]: overexpression of either WT- or KD-GRK2 inhibited insulin-induced Gαq/11 tyrosine phosphorylation

wild type GRK2, overexpressed (adenovirus or plasmid vector)
Gαq/11 tyrosine phosphorylation stimulated by ET-1 or insulin (PY20 immunoprecipitation, anti-Gαq/11 blot) [1]: both WT- and KD-GRK2 overexpression inhibited Gαq/11 tyrosine phosphorylation stimulated by ET-1 or insulin | insulin-induced GLUT4 translocation after nuclear microinjection of the expression vector [1]: overexpression of either WT- or KD-GRK2 by nuclear microinjection inhibited insulin-induced GLUT4 translocation | insulin-induced Gαq/11 tyrosine phosphorylation (PY20 immunoprecipitation, anti-Gαq/11 blot) [1]: overexpression of either WT- or KD-GRK2 inhibited insulin-induced Gαq/11 tyrosine phosphorylation

B1: G protein-coupled receptor kinase 2 (GRK2), endogenous protein of 3T3-L1 adipocytes (enzyme, UniProt Q99MK8 1-689, looked up)
chain: MADLEAVLADVSYLMAMEKSKATPAARASKKILLPEPSIRSVMQKYLEDRGEVTFEKIFSQKLGYLLFRDFCLNHLEEAKPLVEFYEEIKKYEKLETEEERVVRSREIFDSYIMKELLACSHPFSKNATEHVQGHLVKKQVPPDLFQPYIEEICQNLRGDVFQKFIESDKFTRFCQWKNVELNIHLTMNDFSVHRIIGRGGFGEVYGCRKADTGKMYAMKCLDKKRIKMKQGETLALNERIMLSLVSTGDCPFIVCMSYAFHTPDKLSFILDLMNGGDLHYHLSQHGVFSEADMRFYAAEIILGLEHMHNRFVVYRDLKPANILLDEHGHVRISDLGLACDFSKKRPHASVGTHGYMAPEVLQKGVAYDSSADWFSLGCMLFKLLRGHSPFRQHKTKDKHEIDRMTLTMAVELPDSFSPELRSLLEGLLQRDVNRRLGCLGRGAQEVKESPFFRSLDWQMVFLQKYPPPLIPPRGEVNAADAFDIGSFDEEDTKGIKLLDSDQELYRNFPLTISERWQQEVAETVFDTINAETDRLEARKKAKNKQLGHEEDYALGKDCIVHGYMSKMGNPFLTQWQRRYFYLFPNRLEWRGEGEAPQSLLTMEEIQSVEETQIKERKCLLLKIRGGKQFVLQCDSDPELVQWKKELRDAYREAQQLVQRVPKMKNKPRSPVVELSKVPLIQRGSANGL
notes: Precipitated from cell lysate with a rabbit polyclonal anti-GRK2 antibody; also called endogenous GRK2
binding result [2]: no binding
